Assays:
[1] = value used in equation 1; cited from earlier work
[2] = RP-HPLC MAG-Tn3 content before and after 0.2 μm filtration; type: physicochemical; conditions: L-arginine-L-arginine-mono-hydrochloride buffer system
Method: RP-HPLC was performed to assess MAG-Tn3 content in the formulations before and after filtration with a 0.2 μm syringe filter. A Waters 2996 HPLC equipped with UV detection was used with a Poros R 1/10 column from Applied Biosciences and a 0-100% acetonitrile in 0.1% triflouroacetic acid gradient. Size-exclusion chromatography was performed using a Waters 2996 HPLC equipped with a fluorescence detector (Waters) to assess the aggregation profiles of the resulting formulations using a TSKgel G3000PWxl column (Tosoh Bioscience LLC) and a mobile phase of 200 mM NaCl. SDS-PAGE analysis was done using 4-12% Bis-Tris gels (Invitrogen) and MES running buffer (Invitrogen). The gels were stained using Invitrogen's SilverQuest. Centrifuged and non-centrifuged samples were run on gel to assess the presence of precipitate in the formulations. Centrifugation was performed for 15 minutes at 18 000 g. […]
RP-HPLC was performed to assess MAG-Tn3 content in the formulations before and after filtration with a 0.2 μm syringe filter. […] Size-exclusion chromatography was performed using a Waters 2996 HPLC equipped with a fluorescence detector (Waters) to assess the aggregation profiles of the resulting formulations using a TSKgel G3000PWxl column (Tosoh Bioscience LLC) and a mobile phase of 200 mM NaCl. […]

Row | SMILES | pKa [1] | dose up to which MAG-Tn3 appears soluble ([2]; with CpG7909) | solubility ([2]; with CpG7909, final reconstituted vaccine, read-out: concentration up to which MAG-Tn3 appears soluble)
1 | N=C(N)NCCC[C@H](N)C(=O)O [Arginine] | molar ratios of Arg:ArgHCl (Arg pKa = 8.991). | – | –
2 | CC[C@H](C)[C@H](NC(=O)CNC(=O)[C@@H](NC(=O)[C@H](Cc1ccccc1)NC(=O)[C@H](CCCCN)NC(=O)[C@H](CO)NC(=O)[C@H](CC(N)=O)NC(=O)[C@H](C)NC(=O)[C@H](CCCCN)NC(=O)[C@@H](NC(=O)[C@H](Cc1ccc(O)cc1)NC(=O)[C@H](CCC(N)=O)NC(=O)C(NC(=O)C(NC(=O)C(N)CO[C@H]1O[C@H](CO)[C@H](O)[C@H](O)[C@H]1NC(C)=O)C(C)O[C@H]1O[C@H](CO)[C@H](O)[C@H](O)[C@H]1NC(C)=O)C(C)O[C@H]1O[C@H](CO)[C@H](O)[C@H](O)[C@H]1NC(C)=O)[C@@H](C)CC)[C@@H](C)CC)C(=O)N[C@H](C(=O)N[C@@H](CCC(=O)O)C(=O)N[C@@H](CC(C)C)C(=O)NCCCC[C@H](NC(=O)[C@H](CC(C)C)NC(=O)[C@H](CCC(=O)O)NC(=O)[C@@H](NC(=O)[C@@H](NC(=O)CNC(=O)[C@@H](NC(=O)[C@H](Cc1ccccc1)NC(=O)[C@H](CCCCN)NC(=O)[C@H](CO)NC(=O)[C@H](CC(N)=O)NC(=O)[C@H](C)NC(=O)[C@H](CCCCN)NC(=O)[C@@H](NC(=O)[C@H](Cc1ccc(O)cc1)NC(=O)[C@H](CCC(N)=O)NC(=O)C(NC(=O)C(NC(=O)C(N)CO[C@H]1O[C@H](CO)[C@H](O)[C@H](O)[C@H]1NC(C)=O)C(C)O[C@H]1O[C@H](CO)[C@H](O)[C@H](O)[C@H]1NC(C)=O)C(C)O[C@H]1O[C@H](CO)[C@H](O)[C@H](O)[C@H]1NC(C)=O)[C@@H](C)CC)[C@@H](C)CC)[C@@H](C)CC)[C@@H](C)O)C(=O)NCCCC[C@H](NC(=O)[C@H](CCCCNC(=O)[C@H](CC(C)C)NC(=O)[C@H](CCC(=O)O)NC(=O)[C@@H](NC(=O)[C@@H](NC(=O)CNC(=O)[C@@H](NC(=O)[C@H](Cc1ccccc1)NC(=O)[C@H](CCCCN)NC(=O)[C@H](CO)NC(=O)[C@H](CC(N)=O)NC(=O)[C@H](C)NC(=O)[C@H](CCCCN)NC(=O)[C@@H](NC(=O)[C@H](Cc1ccc(O)cc1)NC(=O)[C@H](CCC(N)=O)NC(=O)C(NC(=O)C(NC(=O)C(N)CO[C@H]1O[C@H](CO)[C@H](O)[C@H](O)[C@H]1NC(C)=O)C(C)O[C@H]1O[C@H](CO)[C@H](O)[C@H](O)[C@H]1NC(C)=O)C(C)O[C@H]1O[C@H](CO)[C@H](O)[C@H](O)[C@H]1NC(C)=O)[C@@H](C)CC)[C@@H](C)CC)[C@@H](C)CC)[C@@H](C)O)NC(=O)[C@H](CC(C)C)NC(=O)[C@H](CCC(=O)O)NC(=O)[C@@H](NC(=O)[C@@H](NC(=O)CNC(=O)[C@@H](NC(=O)[C@H](Cc1ccccc1)NC(=O)[C@H](CCCCN)NC(=O)[C@H](CO)NC(=O)[C@H](CC(N)=O)NC(=O)[C@H](C)NC(=O)[C@H](CCCCN)NC(=O)[C@@H](NC(=O)[C@H](Cc1ccc(O)cc1)NC(=O)[C@H](CCC(N)=O)NC(=O)C(NC(=O)C(NC(=O)C(N)CO[C@H]1O[C@H](CO)[C@H](O)[C@H](O)[C@H]1NC(C)=O)C(C)O[C@H]1O[C@H](CO)[C@H](O)[C@H](O)[C@H]1NC(C)=O)C(C)O[C@H]1O[C@H](CO)[C@H](O)[C@H](O)[C@H]1NC(C)=O)[C@@H](C)CC)[C@@H](C)CC)[C@@H](C)CC)[C@@H](C)O)C(=O)NCCC(=O)O)[C@@H](C)O (stereo partly drawn) [MAG-Tn3] | – | ≤ 450 μg/dose | ≤ 0.9 mg/mL

Reference: patent US20170119864A1, “SACCHARIDE VACCINE FORMULATION” (GLAXOSMITHKLINE BIOLOGICALS S.A., priority 2013, published 2017)
